Data published in the supplement of paper PMC7125110.
± gives the standard error. For some of these results: This sample holds only a part of the variants without activity.

B1: glmS ribozyme (parent)
chain: AUAAAAGCGCCAGAACUACAGAAAUGUAGUUGACGAGGAGGAGGUUUAUCGAAUUUUCGGCGGAUGCCUCCAAA

Experiments:
Settings in all cases: with glucosamine-6-phosphate
glucosamine-6-phosphate [1] = variants of: B1; test: kcat; higher = faster cleavage; RNA array
Procedure, shortened: (§1)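 Barcoded ribozyme variants on sequenced MiSeq chips were transcribed in situ by E. coli RNA polymerase and followed at 37 °C through a hybridised Cy3 probe. Glucosamine-6-phosphate at 40 μM to 10 mM in HEPES/KCl/Mg(OAc)2 buffer was flowed in, and tiles were imaged over ~14 h. Signals were normalised to baseline and to non-cleaving reference variants, and per-tile medians were fit to one- or two-exponential decays to give kobs. Weighted Michaelis–Menten fits across concentrations gave kcat and KM.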

glucosamine-6-phosphate [2] = variants of: B1; test: KM; higher = weaker cofactor use; RNA array
Procedure, shortened: as §1

glucosamine-6-phosphate [3] = variants of: B1; test: self-cleavage kobs at 160 uM GlcN6P; higher = faster cleavage; RNA array
Procedure, shortened: as §1

glucosamine-6-phosphate [4] = variants of: B1; test: self-cleavage kobs at 640 uM GlcN6P; higher = faster cleavage; RNA array
Procedure, shortened: as §1

glucosamine-6-phosphate [5] = variants of: B1; test: self-cleavage kobs at 2500 uM GlcN6P; higher = faster cleavage; RNA array
Procedure, shortened: as §1

glucosamine-6-phosphate [6] = variants of: B1; test: self-cleavage kobs at 10000 uM GlcN6P; higher = faster cleavage; RNA array
Procedure, shortened: as §1

glucosamine-6-phosphate [7] = variants of: B1; test: self-cleavage kobs at 40 uM GlcN6P; higher = faster cleavage; RNA array
Procedure, shortened: as §1

Row | Variant | kcat (glucosamine-6-phosphate [1]) | KM (glucosamine-6-phosphate [2]) | self-cleavage kobs at 160 uM GlcN6P (glucosamine-6-phosphate [3]) | self-cleavage kobs at 640 uM GlcN6P (glucosamine-6-phosphate [4]) | self-cleavage kobs at 2500 uM GlcN6P (glucosamine-6-phosphate [5]) | self-cleavage kobs at 10000 uM GlcN6P (glucosamine-6-phosphate [6]) | self-cleavage kobs at 40 uM GlcN6P (glucosamine-6-phosphate [7])
1 | G37A A48C | 1.56e-05 ± 6e-07 s⁻¹ | 1270 ± 290 µM | < 1e-05 s⁻¹ |  |  |  | 
2 | A52G A64C C70A | 1.92e-05 ± 6.2e-06 s⁻¹ |  |  |  |  |  | 
3 | A52G U54G | 0.00117 ± 0.00021 s⁻¹ | 3060 ± 840 µM | 6.71e-05 ± 1.6e-05 s⁻¹ | 0.000183 ± 2.3e-05 s⁻¹ | 0.000616 ± 8.2e-05 s⁻¹ | 0.000855 ± 0.00012 s⁻¹ | 
4 | C61G C67U | 2.12e-05 ± 5.2e-06 s⁻¹ |  |  |  |  |  | 
5 | A36U U57A G66C | < 1e-05 s⁻¹ |  |  |  |  |  | 
6 | U45C U65G | 0.000191 ± 3.7e-05 s⁻¹ | 1810 ± 840 µM |  | 4.57e-05 ± 9.8e-06 s⁻¹ | 0.000188 ± 4e-05 s⁻¹ | 0.000154 ± 2e-05 s⁻¹ | 
7 | C8G U57C | < 1e-05 s⁻¹ |  |  | < 1e-05 s⁻¹ | < 1e-05 s⁻¹ | < 1e-05 s⁻¹ | < 1e-05 s⁻¹
8 | U65C G66A | 0.000598 ± 0.00017 s⁻¹ |  |  | 0.000112 ± 3.9e-05 s⁻¹ | 0.000323 ± 0.00014 s⁻¹ | 0.000416 ± 7.9e-05 s⁻¹ | 
9 | G41U A48U | 5.64e-05 ± 5.9e-06 s⁻¹ | 2530 ± 840 µM |  |  |  | 4.45e-05 ± 1.4e-05 s⁻¹ | 
10 | G43U C68U | 0.00467 ± 0.00089 s⁻¹ | 1190 ± 320 µM | 0.000436 ± 4.8e-05 s⁻¹ | 0.00188 ± 0.00022 s⁻¹ | 0.00344 ± 0.00047 s⁻¹ | 0.00404 ± 0.0004 s⁻¹ | 0.000181 ± 1.5e-05 s⁻¹
11 | U56G U69G | 4.9e-05 ± 9e-06 s⁻¹ |  |  | 8.25e-05 ± 1.5e-05 s⁻¹ | 4.98e-05 ± 1.3e-05 s⁻¹ | 4.12e-05 ± 7.4e-06 s⁻¹ | 
12 | U56A C70A | 8.96e-05 ± 1.4e-05 s⁻¹ |  | 5.73e-05 ± 1.1e-05 s⁻¹ | 7.05e-05 ± 1.1e-05 s⁻¹ | 0.000153 ± 2.3e-05 s⁻¹ | 8.51e-05 ± 9.4e-06 s⁻¹ | 3.68e-05 ± 1.1e-05 s⁻¹
13 | G43U A53C | 2.22e-05 ± 5.7e-07 s⁻¹ | 7310 ± 400 µM |  |  |  |  | 
14 | G40A C50G | < 1e-05 s⁻¹ |  |  |  |  |  | 
15 | A6U U30C U31G | 9.88e-05 ± 6.8e-06 s⁻¹ | 7220 ± 1100 µM |  |  |  | 5.74e-05 ± 1.6e-05 s⁻¹ | 
16 | G29U U31A | 0.0048 ± 0.0017 s⁻¹ | 3260 ± 1600 µM | 0.000159 ± 3.6e-05 s⁻¹ | 0.000947 ± 0.00018 s⁻¹ | 0.0019 ± 0.00044 s⁻¹ | 0.00369 ± 0.00052 s⁻¹ | 9.58e-05 ± 1.6e-05 s⁻¹
17 | U47A C67A | 0.00576 ± 0.0027 s⁻¹ |  | 0.000303 ± 5.4e-05 s⁻¹ | 0.0014 ± 0.00021 s⁻¹ | 0.00288 ± 0.00043 s⁻¹ | 0.00568 ± 0.0013 s⁻¹ | 0.000186 ± 2.7e-05 s⁻¹
18 | G13A A53U C58A | 0.000493 ± 0.00022 s⁻¹ |  |  | 6.46e-05 ± 1.6e-05 s⁻¹ | 0.000366 ± 0.0001 s⁻¹ | 0.000332 ± 8.4e-05 s⁻¹ | 
19 | C11A C50A | 1.11e-05 ± 3.1e-06 s⁻¹ |  |  |  |  |  | 
